Reference: the supplement of paper PMC9112550, “Optimization of the antimicrobial peptide Bac7 by deep mutational scanning” (BMC Biology, 2022)

Tested on: Escherichia coli TOP10
Experiment: shrunken log2 fold change of peptide-encoding DNA abundance (4.5 h post-induction vs induction); higher = less antimicrobial activity (less host growth inhibition)
Settings: time post-induction: 4.5 h; library: site-saturation at positions 5, 18, 19, 20
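Further: peptides expressed intracellularly from a pBAD plasmid library in pooled LB shake-flask culture, induced with 0.3% L-arabinose, DNA abundance read by NGS, three biological replicates, DESeq2 with apeglm shrinkage.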

| Sequence | shrunken log2 fold change |
| --- | --- |
| RRIRMRPPRLPRPRPRPPCFPRP | 0.257 |
| RRIRKRPPRLPRPRPRPAMRPRP | 1.33 |
| RRIRQRPPRLPRPRPRPKISPRP | -0.144 |
| RRIRMRPPRLPRPRPRPNWSPRP | -0.18 |
| RRIRPRPPRLPRPRPRPRTAPRP | 0.562 |
| RRIRWRPPRLPRPRPRPCTKPRP | 0.311 |
| RRIRMRPPRLPRPRPRPQGAPRP | 0.124 |
| RRIRERPPRLPRPRPRPLKMPRP | -0.175 |
| RRIRIRPPRLPRPRPRPKARPRP | -0.0685 |
| RRIRFRPPRLPRPRPRPPWLPRP | 0.509 |
| RRIRSRPPRLPRPRPRPMIHPRP | -0.0892 |
| RRIRCRPPRLPRPRPRPWSDPRP | -0.324 |
| RRIRERPPRLPRPRPRPNCFPRP | -0.195 |
| RRIRVRPPRLPRPRPRPCYKPRP | -0.691 |
| RRIRFRPPRLPRPRPRPHNGPRP | -0.0493 |
| RRIRIRPPRLPRPRPRPHWIPRP | -0.157 |
| RRIRARPPRLPRPRPRPCFQPRP | 0.105 |
| RRIRARPPRLPRPRPRPRRYPRP | 0.255 |
| RRIRTRPPRLPRPRPRPGIPPRP | -0.394 |
| RRIRIRPPRLPRPRPRPDGGPRP | -0.446 |
| RRIRYRPPRLPRPRPRPTLMPRP | -0.301 |
| RRIRWRPPRLPRPRPRPCSMPRP | -0.565 |
| RRIRIRPPRLPRPRPRPPCYPRP | -0.154 |
| RRIRERPPRLPRPRPRPDDHPRP | -0.284 |
| RRIRDRPPRLPRPRPRPPVTPRP | -0.0696 |

| Sequence | shrunken log2 fold change |
| --- | --- |
| RRIRDRPPRLPRPRPRPVTTPRP | 0.0135 |
| RRIRTRPPRLPRPRPRPRCGPRP | 0.172 |
| RRIRERPPRLPRPRPRPLKFPRP | -0.377 |
| RRIRVRPPRLPRPRPRPVNNPRP | -0.39 |
| RRIRNRPPRLPRPRPRPWIQPRP | -0.209 |
| RRIRFRPPRLPRPRPRPPACPRP | 0.628 |
| RRIRCRPPRLPRPRPRPMQDPRP | -0.0947 |
| RRIRMRPPRLPRPRPRPSSHPRP | 0.0506 |
| RRIRARPPRLPRPRPRPFNMPRP | -0.201 |
| RRIRHRPPRLPRPRPRPVLQPRP | -0.169 |
| RRIRCRPPRLPRPRPRPIESPRP | 0.204 |
| RRIRERPPRLPRPRPRPEWAPRP | 0.103 |
| RRIRIRPPRLPRPRPRPYMEPRP | -0.677 |
| RRIRPRPPRLPRPRPRPAVGPRP | 0.414 |
| RRIRERPPRLPRPRPRPHVLPRP | -0.202 |
| RRIRMRPPRLPRPRPRPNEMPRP | 0.318 |
| RRIRNRPPRLPRPRPRPEQQPRP | 0.736 |
| RRIRNRPPRLPRPRPRPAGFPRP | 0.0141 |
| RRIRKRPPRLPRPRPRPDHDPRP | 0.0562 |
| RRIRARPPRLPRPRPRPKKYPRP | -0.232 |
| RRIRHRPPRLPRPRPRPASLPRP | -0.0081 |
| RRIRSRPPRLPRPRPRPLCIPRP | -0.334 |
| RRIRLRPPRLPRPRPRPGCCPRP | 0.387 |
| RRIRKRPPRLPRPRPRPEARPRP | 0.429 |
| RRIRMRPPRLPRPRPRPHESPRP | 0.432 |

| Sequence | shrunken log2 fold change |
| --- | --- |
| RRIRGRPPRLPRPRPRPESSPRP | 1.26 |
| RRIRLRPPRLPRPRPRPFKNPRP | -0.499 |
| RRIRIRPPRLPRPRPRPEDMPRP | 0.0397 |
| RRIRKRPPRLPRPRPRPHREPRP | -0.0175 |
| RRIRNRPPRLPRPRPRPYWQPRP | -0.215 |
| RRIRTRPPRLPRPRPRPQCLPRP | 0.0552 |
| RRIRERPPRLPRPRPRPGNGPRP | -0.0693 |
| RRIRYRPPRLPRPRPRPQIIPRP | -0.248 |
| RRIRKRPPRLPRPRPRPVGMPRP | 0.554 |
| RRIRQRPPRLPRPRPRPHNSPRP | -0.596 |
| RRIRIRPPRLPRPRPRPGMFPRP | -0.284 |
| RRIRRRPPRLPRPRPRPPTQPRP | 0.678 |
| RRIRDRPPRLPRPRPRPPCLPRP | -0.264 |
| RRIRIRPPRLPRPRPRPIKNPRP | -0.546 |
| RRIRHRPPRLPRPRPRPTTNPRP | -0.348 |
| RRIRMRPPRLPRPRPRPPVCPRP | 0.439 |
| RRIRLRPPRLPRPRPRPVLIPRP | -0.303 |
| RRIRVRPPRLPRPRPRPHYEPRP | -0.173 |
| RRIRVRPPRLPRPRPRPCKYPRP | -0.725 |
| RRIRQRPPRLPRPRPRPRSPPRP | 0.0984 |
| RRIRPRPPRLPRPRPRPNHTPRP | -0.21 |
| RRIRRRPPRLPRPRPRPQSSPRP | -0.0217 |
| RRIRHRPPRLPRPRPRPAWNPRP | 0.287 |
| RRIRPRPPRLPRPRPRPWFAPRP | -0.116 |
| RRIRHRPPRLPRPRPRPYQSPRP | 0.0306 |

| Sequence | shrunken log2 fold change |
| --- | --- |
| RRIRWRPPRLPRPRPRPYYCPRP | -0.00583 |
| RRIRVRPPRLPRPRPRPASLPRP | -0.372 |
| RRIRPRPPRLPRPRPRPRAAPRP | 0.611 |
| RRIRWRPPRLPRPRPRPTVQPRP | 0.116 |
| RRIRIRPPRLPRPRPRPEKSPRP | 0.028 |
| RRIRCRPPRLPRPRPRPQMMPRP | -0.346 |
| RRIRHRPPRLPRPRPRPAYCPRP | 0.119 |
| RRIRLRPPRLPRPRPRPCKWPRP | 0.117 |
| RRIRRRPPRLPRPRPRPALQPRP | 1.92 |
| RRIRYRPPRLPRPRPRPKYIPRP | -0.665 |
| RRIRGRPPRLPRPRPRPTPHPRP | 0.906 |
| RRIRIRPPRLPRPRPRPHDMPRP | -0.226 |
| RRIRPRPPRLPRPRPRPNVYPRP | -0.177 |
| RRIRTRPPRLPRPRPRPFKPPRP | -0.0194 |
| RRIRYRPPRLPRPRPRPHMTPRP | -0.845 |
| RRIRRRPPRLPRPRPRPPQKPRP | 1.31 |
| RRIRNRPPRLPRPRPRPAFAPRP | 0.158 |
| RRIRYRPPRLPRPRPRPNITPRP | -1.03 |
| RRIRRRPPRLPRPRPRPSKQPRP | -0.118 |
| RRIRIRPPRLPRPRPRPTQNPRP | 0.19 |
| RRIRNRPPRLPRPRPRPTLSPRP | 0.145 |
| RRIRGRPPRLPRPRPRPTLHPRP | 0.896 |
| RRIRHRPPRLPRPRPRPPQQPRP | 0.6 |
| RRIRMRPPRLPRPRPRPEGDPRP | 4.15 |
| RRIRMRPPRLPRPRPRPRMEPRP | 0.0362 |

| Sequence | shrunken log2 fold change |
| --- | --- |
| RRIRVRPPRLPRPRPRPAKAPRP | 0.0673 |
| RRIRCRPPRLPRPRPRPLAVPRP | 0.0263 |
| RRIRWRPPRLPRPRPRPEETPRP | 0.0603 |
| RRIRARPPRLPRPRPRPYSAPRP | -0.256 |
| RRIRLRPPRLPRPRPRPDHNPRP | -0.00288 |
| RRIRVRPPRLPRPRPRPAQHPRP | 0.151 |
| RRIRMRPPRLPRPRPRPTGSPRP | 1.34 |
| RRIRKRPPRLPRPRPRPYSKPRP | -0.608 |
| RRIRVRPPRLPRPRPRPSQGPRP | -0.371 |
| RRIRTRPPRLPRPRPRPDWMPRP | 0.0121 |
| RRIRCRPPRLPRPRPRPTQLPRP | 0.338 |
| RRIRRRPPRLPRPRPRPILRPRP | 0.691 |
| RRIRYRPPRLPRPRPRPTCPPRP | -0.434 |
| RRIRERPPRLPRPRPRPQDEPRP | -0.941 |
| RRIRTRPPRLPRPRPRPMKNPRP | -0.146 |
| RRIRTRPPRLPRPRPRPERNPRP | -0.201 |
| RRIRHRPPRLPRPRPRPLWHPRP | -0.138 |
| RRIRKRPPRLPRPRPRPHLPPRP | 0.0692 |
| RRIRMRPPRLPRPRPRPMFVPRP | -0.298 |
| RRIRLRPPRLPRPRPRPLNHPRP | -0.355 |
| RRIRERPPRLPRPRPRPDPGPRP | 0.0879 |
| RRIRKRPPRLPRPRPRPHGRPRP | 0.239 |
| RRIRMRPPRLPRPRPRPNQNPRP | 0.079 |
| RRIRGRPPRLPRPRPRPTENPRP | 0.682 |
| RRIRERPPRLPRPRPRPVCPPRP | -0.162 |

| Sequence | shrunken log2 fold change |
| --- | --- |
| RRIRRRPPRLPRPRPRPCNSPRP | 0.00408 |
| RRIRHRPPRLPRPRPRPEVAPRP | -0.00165 |
| RRIRERPPRLPRPRPRPVDPPRP | -0.342 |
| RRIRNRPPRLPRPRPRPVVHPRP | -0.165 |
| RRIRDRPPRLPRPRPRPVPVPRP | -0.346 |
| RRIRSRPPRLPRPRPRPVVDPRP | 0.125 |
| RRIRPRPPRLPRPRPRPNVFPRP | -0.21 |
| RRIRPRPPRLPRPRPRPRGEPRP | 0.646 |
| RRIRMRPPRLPRPRPRPGKGPRP | 0.0403 |
| RRIRSRPPRLPRPRPRPYFFPRP | -0.682 |
| RRIRRRPPRLPRPRPRPCHCPRP | -0.0688 |
| RRIRARPPRLPRPRPRPHRKPRP | -0.000548 |
| RRIRMRPPRLPRPRPRPAFPPRP | -0.104 |
| RRIRSRPPRLPRPRPRPPDPPRP | 0.472 |
| RRIRMRPPRLPRPRPRPVGLPRP | 0.383 |
| RRIRLRPPRLPRPRPRPDTQPRP | 0.0809 |
| RRIRLRPPRLPRPRPRPNWAPRP | -0.00149 |
| RRIRPRPPRLPRPRPRPQCVPRP | 0.14 |
| RRIRARPPRLPRPRPRPWMEPRP | -0.0866 |
| RRIRRRPPRLPRPRPRPPFFPRP | 0.565 |
| RRIRMRPPRLPRPRPRPCRQPRP | 0.0303 |
| RRIRERPPRLPRPRPRPCHMPRP | 0.0597 |
| RRIRQRPPRLPRPRPRPEQNPRP | -0.012 |
| RRIRPRPPRLPRPRPRPPDCPRP | -0.0878 |
| RRIRSRPPRLPRPRPRPKTQPRP | -0.0511 |
